Article doi:10.1101/641969v1

Tests used:
purified protein [1] = substrate: CC(=O)C(=O)O; assay: purified protein; assay type: biochemical, Staphylococcus aureus; settings: 0.2 mM NADPH, 0.2 mM xNA, pH 7, 28 °C
purified protein [2] = substrate: O=C(O)CCC(=O)C(=O)O; assay: purified protein; settings: 0.2 mM NADH, 0.2 mM yNA, pH 8, 28 °C

B1: SaCntM (Staphylococcus aureus subsp. aureus Mu50) (protein)
chain: MSKLLMIGTGPVAIQLANICYLKSDYEIDMVGRASTSEKSKRLYQAYKKEKQFEVKIQNEAHQHLEGKFEINRLYKDVKNVKGEYETVVMACTADAYYDTLQQLSLETLQSVKHVILISPTFGSQMIVEQFMSKFSQDIEVISFSTYLGDTRIVDKEAPNHVLTTGVKKKLYMGSTHSNSTMCQRISALAEQLKIQLEVVESPLHAETRNSSLYVHPPLFMNDFSLKAIFEGTDVPVYVYKLFPEGPITMTLIREMRLMWKEMMAILQAFRVPSVNLLQFMVKENYPVRPETLDEGDIEHFEILPDILQEYLLYVRYTAILIDPFSQPDENGHYFDFSAVPFKQVYKNEQDVVQIPRMPSEDYYRTAMIQHIGKMLGIKTPMIDQFLTRYEASCQAYKDMHQDQQLSSQFNTNLFEGDKALVTKFLEINRTLS
Work on B1 yielded a Km (purified protein [1]) of 51 ± 6 µM and a kcat (purified protein [1]) of 1.00 ± 0.02 s⁻¹.

B2: PaCntM (Pseudomonas aeruginosa PAO1) (protein)
chain: MNAADESLGNVLLVGLGAVAIQVALDLRRHGAGRLGALNHPGRRSQRIAEALARGACLQLEGQGQHRWLSGNAALDVFHQDPAELRDDWQTLVLCVPADSYLDVVRGLPWERLGGVRTLLLVSAFIGANLLVRSALPAGCQATVLSLSSYYAATKVIDETQPLRALTKAVKRRVYLGSSRPDCPARETWRRVLAGSGVEVVPLATPEAAEGRNVTTYVHSPFFLGEFALARILSEQGPPGFMYKLYPEGPITPGAIGAMRRLWCELSELLRRMGAEPLNLLRFLNDDNYPVHETMLPRASIDGFAEAGAERQEYLLFVRYAALLVDPFSPADEQGRHFDFSAVPFRRVSRDEDGLWRLPRVPLEDYRKLALIVALAAHFDLAMPQARSLLASYENAVSRFIDCQGASQCHPSLYPIDSRPAADAIYRQWCSTC
In the case of B2, the Km (purified protein [2]) is reported as 133 ± 39 µM and the kcat (purified protein [2]) is reported as 0.27 ± 0.02 s⁻¹.
